Source: the RNAGym collection of RNA variant scans (doi:10.7554/elife.80360)

B1: Twister Ribozyme (parent)
chain: AACACUGCCAAUGCCGGUCCCAAGCCCGGAUAAAAGUGGAGGGGGCGG

Variants of: B1
Test: self-cleavage, relative activity (ratio to wild type); higher = more cleavage; co-transcriptional

Row | Variant | self-cleavage
1 | AACACUGCCAAUGCCGGUCCCAAACCCGGAUAAAAGUGGAUGGGGCGG | 0.082
2 | AACACUGCCAAUGCCGGUCCCAAACCCGGAUAGAAGUGGAGGGGGCGG | 0.097
3 | AACACUGCCAAUGCCGGUCCCAAACCCGGAUACAAGUGGAGGGGGCGG | 0.0756
4 | AACACUGCCAAUGCCGGUCCCAGGCCCGGAUAAAAGUGAAGGGGGCGG | 0.143
5 | AACACUGCCAAUGCCGGUCCCAAACGCGGAUAAAAGUGGAGGGGGCGG | 0.0568
6 | AACACUGCCAAUGCCGGUCCCAAACACGGAUAAAAGUGGAGGGGGCGG | 0.123
7 | AACACUGCCAAUGCCGGUCCCAAACCCGGAUAAAAGUGGCGGGGGCGG | 0.105
8 | AACACUGCCAAUGCCGGUCCCAUGCCCGGAUAAAACUGGAGGGGGCGG | 0.12
9 | AACACUGCCAAUGCCGGUCCCAAACCCAGAUAAAAGUGGAGGGGGCGG | 0.0708
10 | AACACUGCCAAUGCCGGUCCCAACCCCGGAUAAAAGUGGAGGGGGUGG | 0.126
11 | AACACUGCCAAUGCCGGUCCCAACCCCGGAUAAAAGUGGAGGGGGGGG | 0.105
12 | AACACUGCCAAUGCCGGUCCCAUGCCCGGAUAAAAGUGGAGGGGGCGA | 0.389
13 | AACACUGCCAAUGCCGGUCCCAUGCCCGGAUAAAAGUGGAGGGGGCGU | 0.439
14 | AACACUGCCAAUGCCGGUCCCAUGCCCGGAUAAAAGUGGAGGGGGCGC | 0.48
15 | AACACUGCCAAUGCCGGUCCCAAACCCGGAUAAAGGUGGAGGGGGCGG | 0.0812
16 | AACACUGCCAAUGCCGGUCCCAGGCCCGGAUAAAAGUGGAGGGGGCUG | 0.17
17 | AACACUGCCAAUGCCGGUCCCAGGCCCGGAUAAAAGUGGAGGGCGCGG | 0.508
18 | AACACUGCCAAUGCCGGUCCCAAACCCGGAUAAAAGUUGAGGGGGCGG | 0.126
19 | AACACUGCCAAUGCCGGUCCCAACCCCGGAUAAAAGUGGUGGGGGCGG | 0.0978
20 | AACACUGCCAAUGCCGGUCCCAUGCCCGGAAAAAAGUGGAGGGGGCGG | 0.502
21 | AACACUGCCAAUGCCGGUCCCAUGCCCGGACAAAAGUGGAGGGGGCGG | 0.682
22 | AACACUGCCAAUGCCGGUCCCAAACCCGGAUAAAAGUGGAGAGGGCGG | 0.0855
23 | AACACUGCCAAUGCCGGUCCCAAACCCGGAUAAAAGUGGAGGGGACGG | 0.122
24 | AACACUGCCAAUGCCGGUCCCAACUCCGGAUAAAAGUGGAGGGGGCGG | 0.114
25 | AACACUGCCAAUGCCGGUCCCAACCCCGGAUAAAAUUGGAGGGGGCGG | 0.0983
26 | AACACUGCCAAUGCCGGUCCCAUGCCCGGAUAACAGUGGAGGGGGCGG | 0.0966
27 | AACACUGCCAAUGCCGGUCCCAUGCCCGGAUAAGAGUGGAGGGGGCGG | 0.0731

Row | Variant | self-cleavage
28 | AACACUGCCAAUGCCGGUCCCAGGCCCUGAUAAAAGUGGAGGGGGCGG | 0.184
29 | AACACUGCCAAUGCCGGUCCCAGGCCCCGAUAAAAGUGGAGGGGGCGG | 0.246
30 | AACACUGCCAAUGCCGGUCCCAAACCCGGAUAAAAGUGGAGGGGGGGG | 0.0598
31 | AACACUGCCAAUGCCGGUCCCAUGCCCGGAUAAAAGUGGAGGGGACGG | 0.391
32 | AACACUGCCAAUGCCGGUCCCAUGCCCGGAUAAAAGUGUAGGGGGCGG | 0.119
33 | AACACUGCCAAUGCCGGUCCCAAACCCGCAUAAAAGUGGAGGGGGCGG | 0.0767
34 | AACACUGCCAAUGCCGGUCCCAGGCCCGGAUAAAAGUUGAGGGGGCGG | 0.236
35 | AACACUGCCAAUGCCGGUCCCAGGCCCGGAUAAAAGUAGAGGGGGCGG | 0.194
36 | AACACUGCCAAUGCCGGUCCCAUGCCCGGAUAAAAGUGGCGGGGGCGG | 0.103
37 | AACACUGCCAAUGCCGGUCCCAAACCCGGAUCAAAGUGGAGGGGGCGG | 0.0703
38 | AACACUGCCAAUGCCGGUCCCAAAGCCGGAUAAAAGUGGAGGGGGCGG | 0.0958
39 | AACACUGCCAAUGCCGGUCCCAAACCCGGAUAAAAGUGGAGGGAGCGG | 0.101
40 | AACACUGCCAAUGCCGGUCCCAAACCCGGAUAAAAGUGGAGGGCGCGG | 0.0736
41 | AACACUGCCAAUGCCGGUCCCAGGCCCGGAUAAAAGUGGAGGGGGCGU | 0.354
42 | AACACUGCCAAUGCCGGUCCCAGGCCCGGAUAAAAGUGGAGGGGGCGA | 0.327
43 | AACACUGCCAAUGCCGGUCCCAGGCCCGGAUAAAAGUGGAGGGGGCGC | 0.516
44 | AACACUGCCAAUGCCGGUCCCAUGCUCGGAUAAAAGUGGAGGGGGCGG | 0.153
45 | AACACUGCCAAUGCCGGUCCCAUGCACGGAUAAAAGUGGAGGGGGCGG | 0.234
46 | AACACUGCCAAUGCCGGUCCCAUGCCCGGAUAAAAGUGGAGGGGGCCG | 0.213
47 | AACACUGCCAAUGCCGGUCCCAUGCCCGGAUAAAAGUGGAGGGGGCAG | 0.245
48 | AACACUGCCAAUGCCGGUCCCAUGGCCGGAUAAAAGUGGAGGGGGCGG | 0.0583
49 | AACACUGCCAAUGCCGGUCCCAACCCGGGAUAAAAGUGGAGGGGGCGG | 0.134
50 | AACACUGCCAAUGCCGGUCCCAACCCAGGAUAAAAGUGGAGGGGGCGG | 0.121
51 | AACACUGCCAAUGCCGGUCCCAACCCCGGAUAAUAGUGGAGGGGGCGG | 0.0578
52 | AACACUGCCAAUGCCGGUCCCAACCCCGGAUAACAGUGGAGGGGGCGG | 0.0955
53 | AACACUGCCAAUGCCGGUCCCAUGCCAGGAUAAAAGUGGAGGGGGCGG | 0.0759
54 | AACACUGCCAAUGCCGGUCCCAUGCCGGGAUAAAAGUGGAGGGGGCGG | 0.0875
